According to patent US20210403576A1 (HELIXMITH, published 2021):

Columns and labels:
[1] = target: T1, human c-Met (Sino Biological) (human, UniProt P08581 25-932, limits assumed); assay: derived from the Biacore KD, printed 'Average' 3.52 x10^-10 M divided by the KD
T1 construct: Analyte in the Biacore assay; also called antigen (c-Met); printed as "human c-Met antibody (Sino Biological, Beijing, China)"
Protocol: (§1) The candidate antibodies selected in Example 4 were measured for binding affinity for the antigen (c-Met) with the aid of Biacore. […] The anti-c-Met antibodies to be analyzed were immobilized on Protein A CM5 chips (GE Healthcare, Little Chalfont, UK) through which human c-Met antibody (Sino Biological, Beijing, China) with various concentrations ranging 0.15 to 2 nM was allowed to pass, thereby acquiring sensorgrams. On the basis of the acquired sensorgrams, association constants kₒₙ and dissociation constants koff were measured to calculate Ko value, the ratio koff/kₒₙ.
(§2) In order to select a final candidate group from the 21 candidate antibodies selected in Example 4, comparison was made according to criteria specified into expression level, binding affinity for antigen, thermal stability, and biopotency. As a rule, the expression level is considered to be the most important index when time and cost are taken into consideration from a point of view of production. […] Thereafter, degrees of improvement in each of the remaining candidate antibodies compared to the reference antibody (VH0/Vk0) were digitized with regard to the selected indices. For normalization, analysis index measurements for individual candidate antibodies were divided by average values to give ratios (index 1) which were in turn divided by the measurement for the antibody VH0/Vk0 (index 2) (Tables 6 to 9). In addition, the measurements for the four indices were multiplied for comprehensive comparison of the four indices of the candidate antibodies. The final results (index 3) are listed in a descending order in Table 10.

[2] = target: c-Met protein receptors on HUVEC (human, UniProt P08581 25-1390); assay: cell-based or functional assay
Sequence of c-Met protein receptors on HUVEC (P08581 25-1390): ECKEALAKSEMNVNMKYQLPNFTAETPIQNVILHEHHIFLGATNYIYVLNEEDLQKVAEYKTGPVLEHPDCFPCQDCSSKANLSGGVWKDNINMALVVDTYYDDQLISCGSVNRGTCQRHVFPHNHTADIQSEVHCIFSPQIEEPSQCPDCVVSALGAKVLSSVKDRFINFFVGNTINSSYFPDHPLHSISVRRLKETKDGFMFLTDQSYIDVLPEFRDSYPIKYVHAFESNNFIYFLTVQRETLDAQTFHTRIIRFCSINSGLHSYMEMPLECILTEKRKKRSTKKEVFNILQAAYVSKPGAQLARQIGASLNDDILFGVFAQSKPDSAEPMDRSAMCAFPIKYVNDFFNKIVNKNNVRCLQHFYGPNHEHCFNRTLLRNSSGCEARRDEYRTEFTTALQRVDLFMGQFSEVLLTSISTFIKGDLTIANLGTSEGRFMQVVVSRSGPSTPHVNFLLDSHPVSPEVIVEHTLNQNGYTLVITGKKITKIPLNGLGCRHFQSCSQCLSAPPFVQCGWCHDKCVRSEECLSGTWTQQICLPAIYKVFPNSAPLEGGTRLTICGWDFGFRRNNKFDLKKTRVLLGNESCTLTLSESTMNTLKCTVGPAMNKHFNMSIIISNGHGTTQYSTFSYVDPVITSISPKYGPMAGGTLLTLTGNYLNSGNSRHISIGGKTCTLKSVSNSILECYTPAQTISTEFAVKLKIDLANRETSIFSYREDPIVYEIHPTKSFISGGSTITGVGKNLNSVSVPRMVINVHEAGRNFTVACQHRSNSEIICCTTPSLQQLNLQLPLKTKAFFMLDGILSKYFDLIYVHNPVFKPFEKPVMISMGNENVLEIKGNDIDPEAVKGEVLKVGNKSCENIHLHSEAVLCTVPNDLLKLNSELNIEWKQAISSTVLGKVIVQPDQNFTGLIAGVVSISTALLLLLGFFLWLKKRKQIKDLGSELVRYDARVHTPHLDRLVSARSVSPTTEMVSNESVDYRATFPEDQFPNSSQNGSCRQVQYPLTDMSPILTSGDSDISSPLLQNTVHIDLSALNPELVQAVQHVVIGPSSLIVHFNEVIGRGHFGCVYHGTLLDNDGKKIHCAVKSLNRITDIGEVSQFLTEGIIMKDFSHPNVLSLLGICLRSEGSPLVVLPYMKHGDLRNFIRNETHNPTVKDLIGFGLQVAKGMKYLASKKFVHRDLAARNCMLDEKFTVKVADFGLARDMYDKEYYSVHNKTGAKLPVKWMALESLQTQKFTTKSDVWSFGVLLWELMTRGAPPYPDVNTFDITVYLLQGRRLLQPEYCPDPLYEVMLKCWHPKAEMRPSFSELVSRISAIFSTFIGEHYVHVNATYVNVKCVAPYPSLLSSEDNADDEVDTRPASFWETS

[3] = target: T1, human c-Met (Sino Biological); assay: derived from the Biacore KD, normalised to VH0/Vk0
Protocol: as §1, §2

[4] = target: T1, human c-Met (Sino Biological); assay: SPR (Biacore T200), IgG captured on Protein A CM5 chip, c-Met 0.15-2 nM as analyte
Protocol: as §1

T1 sequence (P08581 25-932 limits assumed): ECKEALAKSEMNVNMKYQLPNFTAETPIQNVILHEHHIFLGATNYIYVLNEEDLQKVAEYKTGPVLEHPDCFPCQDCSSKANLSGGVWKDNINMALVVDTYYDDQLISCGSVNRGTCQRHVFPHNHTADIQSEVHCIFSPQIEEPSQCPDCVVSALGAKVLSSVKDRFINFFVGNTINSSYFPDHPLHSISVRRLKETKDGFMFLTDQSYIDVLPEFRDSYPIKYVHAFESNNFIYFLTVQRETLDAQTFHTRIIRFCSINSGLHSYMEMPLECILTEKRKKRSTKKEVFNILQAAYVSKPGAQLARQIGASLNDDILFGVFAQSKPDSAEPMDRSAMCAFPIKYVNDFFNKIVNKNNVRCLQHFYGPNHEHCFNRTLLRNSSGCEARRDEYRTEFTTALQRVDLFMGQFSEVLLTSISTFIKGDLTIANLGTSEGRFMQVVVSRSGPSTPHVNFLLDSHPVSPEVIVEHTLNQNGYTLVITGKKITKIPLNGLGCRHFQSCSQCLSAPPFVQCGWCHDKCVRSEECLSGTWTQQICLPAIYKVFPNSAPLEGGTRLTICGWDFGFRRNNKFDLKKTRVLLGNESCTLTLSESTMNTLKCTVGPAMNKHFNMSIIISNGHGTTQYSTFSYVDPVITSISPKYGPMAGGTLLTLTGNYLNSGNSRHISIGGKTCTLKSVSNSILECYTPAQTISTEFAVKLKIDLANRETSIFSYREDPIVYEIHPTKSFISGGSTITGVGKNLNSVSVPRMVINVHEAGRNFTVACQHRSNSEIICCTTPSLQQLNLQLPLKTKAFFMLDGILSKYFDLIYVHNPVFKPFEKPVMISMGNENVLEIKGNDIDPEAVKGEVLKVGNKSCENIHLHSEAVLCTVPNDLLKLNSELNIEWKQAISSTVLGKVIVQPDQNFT

| Binder | Index 1 (binding affinity, inverse KD relative to the Average 3.52) [1] | Index 1 (Relative Migration divided by the Average 157.5), HUVEC migration assay [2] | Index 2 (Relative Migration relative to VH0/Vk0), HUVEC migration assay [2] | Relative Migration (%), HUVEC migration assay, 90 ng/ml [2] [%] | Index 2 (binding affinity, inverse KD relative to VH0/Vk0) [3] | Kd [4] [nM] | Relative KD to VMDO2 VH0/Vk0 [4] |
| --- | --- | --- | --- | --- | --- | --- | --- |
| VH5/Vk2 (antibody, IgG1, V domains shown, Full IgG1/kappa expressed in HEK 293 EBNA cells) VH: QVQLVQSGAEVKKPGSSVKVSCQGSGYSFPTHWITWVRQAPGQGLEWMGTIDPTDSYNFYGPSFQGRVTITADSSTSTAYMELSSLRSEDTAVYYCARDGNYYDSRGYYYDTFDMWGQGTLVTVSS VL: DIQMTQSPSSLSASVGDRVTITCRASQGISTYLAWYQQKPGKAPKLLIYSASTLESGVPSRFSGSGSGTDFTLTISSLQPEDFATYYCQQADSFPLTFGGGTKVEIK | 0.838 | 1.12 | 1.18 | 176 | 1.24 | 0.42 | 0.81 |
| VH0/Vk2 (antibody, IgG1, V domains shown, Full IgG1/kappa expressed in HEK 293 EBNA cells) VH: QVQLVQSGAEVKKPGESLRISCQGSGYSFPTHWITWVRQMPGKGLEWMGTIDPTDSYNFYGPSFQGHVTISADSSSSTAYLQWSSLKASDTAMYYCARDGNYYDSRGYYYDTFDMWGQGTLVTVSS VL: DIQMTQSPSSLSASVGDRVTITCRASQGISTYLAWYQQKPGKAPKLLIYSASTLESGVPSRFSGSGSGTDFTLTISSLQPEDFATYYCQQADSFPLTFGGGTKVEIK | 0.688 | 1.03 | 1.09 | 163 | 1.02 | 0.512 | 0.98 |
| VH0/Vk0 (antibody, IgG1, V domains shown, Full IgG1/kappa with the variable domains of 1E4; also called 1E4 antibody variant including the constant domain where the residues were substituted) VH: QVQLVQSGAEVKKPGESLRISCQGSGYSFPTHWITWVRQMPGKGLEWMGTIDPTDSYNFYGPSFQGHVTISADSSSSTAYLQWSSLKASDTAMYYCARDGNYYDSRGYYYDTFDMWGQGTLVTVSS VL: DIQMTQSPSFLSASVGDRVTITCRASQGISTYLAWYQQKPGTAPKLLIYSASTLESGVPSRFSGSGSGTDFTLTISSLQPEDSATYYCQQADSFPLTFGGGTKVEIK | 0.677 | 0.951 | 1 | 150 | 1 | 0.52 | 1 |
| VH2/Vk0 (antibody, IgG1, V domains shown, Full IgG1/kappa expressed in HEK 293 EBNA cells) VH: EVQLVQSGAEVKKPGESLKISCKGSGYSFPTHWITWVRQMPGKGLEWMGTIDPTDSYNFYGPSFQGQVTISADKSISTAYLQWSSLKASDTAMYYCARDGNYYDSRGYYYDTFDMWGQGTLVTVSS VL: DIQMTQSPSFLSASVGDRVTITCRASQGISTYLAWYQQKPGTAPKLLIYSASTLESGVPSRFSGSGSGTDFTLTISSLQPEDSATYYCQQADSFPLTFGGGTKVEIK | 0.659 | 0.993 | 1.04 | 156 | 0.974 | 0.534 | 1.03 |
| VH2/Vk2 (antibody, IgG1, V domains shown, Full IgG1/kappa expressed in HEK 293 EBNA cells) VH: EVQLVQSGAEVKKPGESLKISCKGSGYSFPTHWITWVRQMPGKGLEWMGTIDPTDSYNFYGPSFQGQVTISADKSISTAYLQWSSLKASDTAMYYCARDGNYYDSRGYYYDTFDMWGQGTLVTVSS VL: DIQMTQSPSSLSASVGDRVTITCRASQGISTYLAWYQQKPGKAPKLLIYSASTLESGVPSRFSGSGSGTDFTLTISSLQPEDFATYYCQQADSFPLTFGGGTKVEIK | 0.701 | 1.12 | 1.18 | 176 | 1.04 | 0.502 | 0.97 |
| VH6/Vk2 (antibody, IgG1, V domains shown, Full IgG1/kappa expressed in HEK 293 EBNA cells) VH: QVQLVQSGAEVKKPGSSVKVSCKASGYSFPTHWITWVRQAPGQGLEWMGTIDPTDSYNFYGPSFQGRVTITADKSTSTAYMELSSLRSEDTAVYYCARDGNYYDSRGYYYDTFDMWGQGTLVTVSS VL: DIQMTQSPSSLSASVGDRVTITCRASQGISTYLAWYQQKPGKAPKLLIYSASTLESGVPSRFSGSGSGTDFTLTISSLQPEDFATYYCQQADSFPLTFGGGTKVEIK | 0.8 | 0.979 | 1.03 | 154 | 1.18 | 0.44 | 0.85 |
| VH6/Vk0 (antibody, IgG1, V domains shown, Full IgG1/kappa expressed in HEK 293 EBNA cells) VH: QVQLVQSGAEVKKPGSSVKVSCKASGYSFPTHWITWVRQAPGQGLEWMGTIDPTDSYNFYGPSFQGRVTITADKSTSTAYMELSSLRSEDTAVYYCARDGNYYDSRGYYYDTFDMWGQGTLVTVSS VL: DIQMTQSPSFLSASVGDRVTITCRASQGISTYLAWYQQKPGTAPKLLIYSASTLESGVPSRFSGSGSGTDFTLTISSLQPEDSATYYCQQADSFPLTFGGGTKVEIK | 0.85 | 0.962 | 1.01 | 152 | 1.26 | 0.414 | 0.8 |
| VH4/Vk5 (antibody, IgG1, V domains shown, Full IgG1/kappa expressed in HEK 293 EBNA cells) VH: QVQLVQSGAEVKKPGSSVKVSCQGSGYSFPTHWITWVRQAPGQGLEWMGTIDPTDSYNFYGPSFQGRVTITADSSTSTAYMELSSLRSEDTAMYYCARDGNYYDSRGYYYDTFDMWGQGTLVTVSS VL: EIVLTQSPGTLSLSPGERATLSCRASQGISTYLAWYQQKPGQAPRLLIYSASTLESGIPDRFSGSGSGTDFTLTISRLEPEDFATYYCQQADSFPLTFGGGTKVEIK | 0.669 | 1.09 | 1.14 | 171 | 0.989 | 0.526 | 1.01 |
